Measured values reported in publication PMC9909464, “The human MRS2 magnesium-binding domain is a regulatory feedback switch for channel activity” (Life Science Alliance, 2023).

B1: full-length human MRS2 excluding the mitochondrial targeting sequence, MRS2_(58–443) (natural protein, UniProt Q9HD23 58-443, looked up)
chain: DRLRVAGEVHRFRTSDVSQATLASVAPVFTVTKFDKQGNVTSFERKKTELYQELGLQARDLRFQHVMSITVRNNRIIMRMEYLKAVITPECLLILDYRNLNLEQWLFRELPSQLSGEGQLVTYPLPFEFRAIEALLQYWINTLQGKLSILQPLILETLDALVDPKHSSVDRSKLHILLQNGKSLSELETDIKIFKESILEILDEEELLEELCVSKWSDPQVFEKSSAGIDHAEEMELLLENYYRLADDLSNAARELRVLIDDSQSIIFINLDSHRNVMMRLNLQLTMGTFSLSLFGLMGVAFGMNLESSLEEDHRIFWLITGIMFMGSGLIWRRLLSFLGRQLEAPLPPMMASLPKKTLLADRSMELKNSLRLDGLGSGRSILTNR
notes: in CHAPS micelles in the assay; also called full-length MRS2; source: E. coli BL21 (DE3), purified as the NTD with 10 mM CHAPS in elution and SEC buffers; not shown: His6, N-terminal, cleaved
B2: human MRS2 amino terminal domain, MRS2_(58–333) (domain or fragment, UniProt Q9HD23 58-333, looked up)
chain: DRLRVAGEVHRFRTSDVSQATLASVAPVFTVTKFDKQGNVTSFERKKTELYQELGLQARDLRFQHVMSITVRNNRIIMRMEYLKAVITPECLLILDYRNLNLEQWLFRELPSQLSGEGQLVTYPLPFEFRAIEALLQYWINTLQGKLSILQPLILETLDALVDPKHSSVDRSKLHILLQNGKSLSELETDIKIFKESILEILDEEELLEELCVSKWSDPQVFEKSSAGIDHAEEMELLLENYYRLADDLSNAARELRVLIDDSQSIIFINLDSHRN
notes: Cloned into pET-28a by NdeI and XhoI; also called MRS2 NTD; NTD; source: E. coli BL21 (DE3), purified (nickel-NTA, thrombin cleavage, SEC S200); not shown: His6, N-terminal, cleaved
B3: MRS2_(58–333) D216A/D220A (domain or fragment, human, UniProt Q9HD23 58-333, looked up)
chain: DRLRVAGEVHRFRTSDVSQATLASVAPVFTVTKFDKQGNVTSFERKKTELYQELGLQARDLRFQHVMSITVRNNRIIMRMEYLKAVITPECLLILDYRNLNLEQWLFRELPSQLSGEGQLVTYPLPFEFRAIEALLQYWINTLQGKLSILQPLILETLAALVAPKHSSVDRSKLHILLQNGKSLSELETDIKIFKESILEILDEEELLEELCVSKWSDPQVFEKSSAGIDHAEEMELLLENYYRLADDLSNAARELRVLIDDSQSIIFINLDSHRN
notes: also called D216A/D220A MRS2 NTD double mutant; not shown: His6, N-terminal, cleaved

Key:
[1] = target: the molecule itself; experiment: dynamic light scattering; 0.5 mg/ml in 20 mM Tris, 150 mM NaCl, 1 mM DTT, 10 mM CHAPS, pH 8.0, 37°C; no divalent cations (5 mM MgCl2 or 5 mM CaCl2 gave no change); higher order oligomers
[2] = target: the molecule itself; experiment: SEC-MALS; Superdex 200 Increase 10/300 GL, 20 mM Tris, 150 mM NaCl, 1 mM DTT, pH 8.0, ~10°C; no divalent cations; injected at 0.45-5 mg/ml; monomer to dimer

Row | Protein | binding result [1] | stoichiometry N [2]
1 | B1 | binds | –
2 | B2 | – | 2
3 | B3 | – | 2
